Data: paper PMC2835750, “A Direct Interaction with NEDD1 Regulates γ-Tubulin Recruitment to the Centrosome” (PLoS ONE, 2010)
Substitutions are numbered along the chain they refer to. In names and notes the source's numbering stands.

B1: NEDD1 CTD L642Q, GST removed (domain or fragment, human, UniProt Q8NHV4 572-660, looked up)
chain: ADSIGNNRQNAPLTSIQIRFIQNMIQETLDDFREACHRDIVNLQVEMIKQFHMQLNEMHSLLERYSVNEGQVAEIERLREENKRLRAHF
notes: source: E. coli BL21 star (DE3), purified (glutathione resin, thrombin, SEC)
B2: NEDD1 CTD Y636A/S637A, GST removed (domain or fragment, human, UniProt Q8NHV4 572-660, looked up)
chain: B1 chain with Y65A, S66A, Q71L
notes: also called YS (Y636A/S637A) mutant NEDD1; source: E. coli BL21 star (DE3), purified (glutathione resin, thrombin, SEC)
B3: NEDD1 CTD (residues 572–660), GST removed (domain or fragment, human, UniProt Q8NHV4 572-660, looked up)
chain: B1 chain with Q71L
notes: calculated mass 10.5 kDa; also called NEDD1 CTD WT; purified CTD; source: E. coli BL21 star (DE3), purified (glutathione resin, thrombin, SEC)
B4: NEDD1 CTD L642Q/L649Q/L656Q (3xLQ), GST removed (domain or fragment, human, UniProt Q8NHV4 572-660, looked up)
chain: B1 chain with L78Q, L85Q
notes: also called triple 3×LQ; triple 3xLQ; source: E. coli BL21 star (DE3), purified (glutathione resin, thrombin, SEC)
B5: NEDD1 fragment (residues 549–660) (domain or fragment, human, UniProt Q8NHV4 549-660, looked up)
chain: STPNPKIASSVTAGVASSLSEKIADSIGNNRQNAPLTSIQIRFIQNMIQETLDDFREACHRDIVNLQVEMIKQFHMQLNEMHSLLERYSVNEGLVAEIERLREENKRLRAHF
notes: NEDD1, human, residues 549-660; predicted mass 12.8 kDa; also called additional fragment of NEDD1 that included residues 549–660

Tests used:
[1] = biological target: the molecule itself; test: SEC-MALS; Superdex 200 HR 10/30, 50 mM NaP, 300 mM NaCl, 1 mM DTT, pH 8.0; oligomeric state
[2] = biological target: the molecule itself; test: SEC-MALS; data not shown; single peak not affected by dilution; oligomeric state

Protein | stoichiometry N [1] | stoichiometry N [2]
B1 | 4 | 
B2 | 4 | 
B3 | 4 | 
B4 | 4 | 
B5 |  | 4
